Test results as given in article PMC3397958, “Molecular Characterization of NAD^+-Dependent DNA Ligase from Wolbachia Endosymbiont of Lymphatic Filarial Parasite Brugia malayi” (PLoS ONE, 2012).

Substrate: NC(=O)c1ccc[n+]([C@@H]2O[C@H](COP(=O)(O)OP(=O)(O)OC[C@H]3O[C@@H](n4cnc5c(N)ncnc54)[C@H](O)[C@@H]3O)[C@@H](O)[C@H]2O)c1
Experiment: nick closing activity; fluorescein-labelled oligonucleotide ligated to biotinylated oligonucleotide on streptavidin plate
Assay type: biochemical, Wolbachia endosymbiont of Brugia malayi
Conditions: nicked DNA duplex substrate, 20 mM Tris-HCl pH 8.0, 10 mM MgCl2, 10 mM (NH4)2SO4, 1.2 mM EDTA, 25 °C, 5 nM enzyme, NAD+ 0-30 µM, varied: cofactor

B1: wBm-LigA (NAD+-dependent DNA ligase of Wolbachia endosymbiont of Brugia malayi) (Wolbachia endosymbiont strain TRS of Brugia malayi) (protein)
chain: MADLEKMIEEFTKLRDQISYHDVLYHQKSKPEIADAEYDKLKQKLVEMEGQLPGACVTQDGVGAAPDEKFSKIKHREPMLSLENAYDEQGVERFLSRIKRFLIEEEIEVFCEPKIDGLSFSAVYEDGRFVKAATRGDGFIGEDVTRNVATIKGFPRFLQDVQDRLEVRGEIYINNSDFLKLNKDNEFANPRNAAAGSLKQLDVSITANRPLKYFAYSLIGGKEKSQSEVLNRLESLGFCVNEHRSLTNNLSGMLEFYNKVYNCRYSLDYDIDGIVYKVNDLILQSRLGSTHKAPRSALAYKFSAVYAKTKLNKIFIQVGRTGVLTPVADLIPVNIGGVLVSRANLHNQDEIKRKDVREGDIVTIKRAGDVIPQIVRVDKGSRHADAPGFVFPEICPECGGKVQAEGAAIRCSEELTCKAQIIGKLSHFVSKGAFDIFGLGEKQIKFFYDLGLIKQIPDIFNLEERLNEFSLKEQPDWGERSIANLLNAIQNRRVITLDRFIFSLGIRFIGQVAAELLANYYVSYNNWYNSMIKLLSNDAEVGVGGVEKKIAKSFSDELVGIDGIGEKVAESLKSFFSKEHNIKMLKDLTDYLQILSVNSNSSNSVLNNKVIVFTGKLLTMSRGEAKVRAKALGAKVSSNLSAKIDYLVAGEKPGNKYKKAVELGVGILNEDQWYRMINSEVSE
notes: full length, 683 residues (ORF 2052 bp), pET28a(+), His6 tags at N and C terminus kept, expressed in E. coli Rosetta, Ni-NTA purified, ~75 kDa
Work on B1 yielded a Km of 4.8 µM.
